Measurements reported in patent WO2018223004A1 (dated 2018).

Molecular target: T1, human CD20 (B-lymphocyte antigen CD20) (human, UniProt P11836 1-297)
T1 sequence (looked up): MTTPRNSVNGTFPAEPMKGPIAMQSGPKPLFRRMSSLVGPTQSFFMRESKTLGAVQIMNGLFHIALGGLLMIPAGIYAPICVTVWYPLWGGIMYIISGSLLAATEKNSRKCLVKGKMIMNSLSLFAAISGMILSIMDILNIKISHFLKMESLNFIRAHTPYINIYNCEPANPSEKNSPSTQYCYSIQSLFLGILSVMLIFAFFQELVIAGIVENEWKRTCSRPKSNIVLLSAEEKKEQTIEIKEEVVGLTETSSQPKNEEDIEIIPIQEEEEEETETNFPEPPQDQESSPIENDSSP
Assay: cell-based or functional assay

B1: XmAb13676 Anti-CD20 x Anti-CD3 Fab-scFv-Fc bispecific antibody (bispecific antibody)
heavy: QVQLVQSGAEVKKPGASVKVSCKASGYTFTSYNMHWVRQAPGQGLEWMGAIYPGNGDTSYNQKFQGRVTITADKSISTAYMELSSLRSEDTAVYYCARSTYYGGDWYFNVWGAGTLVTVSSASTKGPSVFPLAPSSKSTSGGTAALGCLVKDYFPEPVTVSWNSGALTSGVHTFPAVLQSSGLYSLSSVVTVPSSSLGTQTYICNVNHKPSDTKVDKKVEPKSCDKTHTCPPCPAPPVAGPSVFLFPPKPKDTLMISRTPEVTCVVVDVKHEDPEVKFNWYVDGVEVHNAKTKPREEEYNSTYRVVSVLTVLHQDWLNGKEYKCKVSNKALPAPIEKTISKAKGQPREPQVYTLPPSREEMTKNQVSLTCDVSGFYPSDIAVEWESDGQPENNYKTTPPVLDSDGSFFLYSKLTVDKSRWEQGDVFSCSVMHEALHNHYTQKSLSLSPGK
scFv: not shown
light: QIVLTQSPSSLSASVGDRVTITCRASSSVSYIHWFQQKPGKSPKPLIYATSNLASGVPVRFSGSGSGTDYTLTISSLQPEDFATYYCQQWTSNPPTFGGGTKVEIKRTVAAPSVFIFPPSDEQLKSGTASVVCLLNNFYPREAKVQWKVDNALQSGNSQESVTEQDSKDSTYSLSSTLTLSKADYEKHKVYACEVTHQGLSSPVTKSFNRGEC
With B1 the “EC50 of Jeko-1 target cell killing in the absence of rituximab” value was 0.024 µg/mL, the “EC50 of Jeko-1 target cell killing with 3 μg/ml rituximab” value was 0.051 µg/mL and the “EC50 of Jeko-1 target cell killing with 10 μg/ml rituximab” value was 0.093 µg/mL. For the same binder, the “EC50 of Jeko-1 target cell killing with 30 μg/ml rituximab” value was 0.162 µg/mL, the “EC50 of Jeko-1 target cell killing with 100 μg/ml rituximab” value was 0.387 µg/mL and the “EC50 of RTCC against Ramos cells with purified T cells from six healthy donors” value was 0.0053 to 0.0143 µg/mL. For the same binder, the “potency of killing of SC-1 against the cell lines with high or intermediate CD20 levels” value was ~10 fold.
